Source: patent US20230331827A1, “POTASSIUM CHANNEL INHIBITORS” (priority 2017, published 2023)

Columns and labels:
trypsin [1] = experiment: TRF, 2.4 ug/mL Fab on trypsin
trypsin [2] = experiment: TRF, 10 ug/mL Fab on trypsin
trypsin [3] = experiment: TRF, 0.6 ug/mL Fab on trypsin
trypsin [4] = experiment: phage TRF on trypsin

Binder	TRF signal (trypsin [1])	TRF signal (trypsin [2])	TRF signal (trypsin [3])	Tryspin binding signal (FU) (trypsin [4])
KB_A05 Fab (Fab, V domains shown) VH: EVQLVESGGGLVRPGGSLRLSCAASGFTFSSYAMSWVRQAPGKGLEWVSAISGSGGSTYYADSVKGRFTISRDNTKNSLYLQMTSLRADDTAFYYCVDFGPGYGTGWFDYWGPGTLVTVSS VL: AVNWYQQLPGKAPKLLIYAADKCPRILMRCKQDSDCLAGCVCGPNGFCGGGSGIPERFSGSKSGTSASLAISGLRSEDEADYYCATWDDNLNGVVFGGGTKLTVLG	65400	218000	46700	
KB_A12 Fab (Fab, V domains shown) VH: EVQLVESGGGLVRPGGSLRLSCAASGFTFSSYAMSWVRQAPGKGLEWVSAISGSGGSTYYADSVKGRFTISRDNTKNSLYLQMTSLRADDTAFYYCVDFGPGYGTGWFDYWGPGTLVTVSS VL: AVNWYQQLPGKAPKLLIYAAGRCPRILMRCKQDSDCLAGCVCGPNGFCGANSGVSDRFSAAKSGTSASLAINGLRSEDEADYYCAAWDDSLNGYVFGTGTKLTVLG	222000	253000	102000	
KB_A01 Fab (Fab, V domains shown) VH: EVQLVESGGGLVRPGGSLRLSCAASGFTFSSYAMSWVRQAPGKGLEWVSAISGSGGSTYYADSVKGRFTISRDNTKNSLYLQMTSLRADDTAFYYCVKDFGPGYGTGWFDYWGPGTLVTVSS VL: YLNWYQQKPGKAPKLLIYAAEVCPRILMRCKQDSDCLAGCVCGPNGFCGGTSGVPSRFSGSRSGTEFTLTISSLQPEDFATYYCQKVDDYPLTFGGGTKVEIKR	16600	55600	2390	
KB_B11 (scFv on phage) (scFv, V domains shown) VH: EVQLVESGGGLVRPGGSLRLSCAASGFTFSSYAMSWVRQAPGKGLEWVSAISGSGGSTYYADSVKGRFTISRDNTKNSLYLQMTSLRADDTAFYYCVKDFGPGYGTGWFDYWGPGTLVTVSS VL: TQPPSVSEAPRQRVTITCGSRPCPRILMRCKQDSDCLAGCVCGPNGFCGSHNWYQQLPGSSPTTVIYEDNQRPSGVPDRFSGSIDRSSNSASLTISGLKTEDEADYYCQSYDSSNHRVVFGGGTKLTVLG				10300 FU
KB_B02 Fab (Fab, V domains shown) VH: EVQLVESGGGLVRPGGSLRLSCAASGFTFSSYAMSWVRQAPGKGLEWVSAISGSGGSTYYADSVKGRFTISRDNTKNSLYLQMTSLRADDTAFYYCVKDFGPGYGTGWFDYWGPGTLVTVSS VL: AVNWYQQLPGKAPKLLIYAAVGCPRILMRCKQDSDCLAGCVCGPNGFCGTGSGIPERFSGSKSGNTASLTISGLQAEDEGDYYCAAWDDSLSGPVFGGGTKLTVLG	15900	56600	2340	
KB_A11 Fab (Fab, V domains shown) VH: EVQLVESGGGLVRPGGSLRLSCAASGFTFSSYAMSWVRQAPGKGLEWVSAISGSGGSTYYADSVKGRFTISRDNTKNSLYLQMTSLRADDTAFYYCVKDFGPGYGTGWFDYWGPGTLVTVSS VL: YLNWYQQKPGKAPKLLIYAAEICPRILMRCKQDSDCLAGCVCGPNGFCGPSSGIPARFSGSGYGTDFTLTINNIESEDAAYYFCLQHDNFPYTFGQGTKVEIKR	141000	212000	48900	
KB_A06 Fab (Fab, V domains shown) VH: EVQLVESGGGLVRPGGSLRLSCAASGFTFSSYAMSWVRQAPGKGLEWVSAISGSGGSTYYADSVKGRFTISRDNTKNSLYLQMTSLRADDTAFYYCVKDFGPGYGTGWFDYWGPGTLVTVSS VL: AVNWYQQLPGKAPKLLIYAAVRCPRILMRCKQDSDCLAGCVCGPNGFCGTPSGIPERFSGSIDRSTNSASLTISGLKTEDEADYYCQSYDSSNLNWVFGGGTKLTVLG	212000	242000	108000	
KB_C07 Fab (Fab, V domains shown) VH: EVQLVESGGGLVRPGGSLRLSCAASGFTFSSYAMSWVRQAPGKGLEWVSAISGSGGSTYYADSVKGRFTISRDNTKNSLYLQMTSLRADDTAFYYCVKDFGPGYGTGWFDYWGPGTLVTVSS VL: AVNWYQQLPGKAPKLLIYAAVGCPRILMRCKQDSDCLAGCVCGPNGFCGSASGVSDRFSGSKSGTSASLAISGLRSEDEADYYCASWDDSLRGYVFGTGTKVTVLG	247000	276000	153000	
KB_A07 Fab (Fab, V domains shown) VH: EVQLVESGGGLVRPGGSLRLSCAASGFTFSSYAMSWVRQAPGKGLEWVSAISGSGGSTYYADSVKGRFTISRDNTKNSLYLQMTSLRADDTAFYYCVKDFGPGYGTGWFDYWGPGTLVTVSS VL: YLNWYQQKPGKAPKLLIYAAGVCPRILMRCKQDSDCLAGCVCGPNGFCGSRSGVPSRFSGSGSGTDFTLTISSLQPEDFATYYCQQGASPPYTFGQGTKVEIKR	201000	226000	108000	
KB_C08 Fab (Fab, V domains shown) VH: EVQLVESGGGLVRPGGSLRLSCAASGFTFSSYAMSWVRQAPGKGLEWVSAISGSGGSTYYADSVKGRFTISRDNTKNSLYLQMTSLRADDTAFYYCVKDFGPGYGTGWFDYWGPGTLVTVSS VL: AVNWYQQLPGKAPKLLIYAAAVCPRILMRCKQDSDCLAGCVCGPNGFCGTRSGIPERFSGSKSGTSAFLAISGLRSEDEADYYCAAWDDSLSGVVFGGGTKLTVLG	131000	183000	51100	
KB_C10 (scFv on phage) (scFv, V domains shown) VH: EVQLVESGGGLVRPGGSLRLSCAASGFTFSSYAMSWVRQAPGKGLEWVSAISGSGGSTYYADSVKGRFTISRDNTKNSLYLQMTSLRADDTAFYYCVKDFGPGYGTGWFDYWGPGTLVTVSS VL: AVNWYQQLPGKAPKLLIYAAGPCPRILMRCKQDSDCLAGCVCGPNGFCGADSGVSDRFSGSKSGTSASLAITGLQAEDEGDYYCAAWDDSLNGLVFGGGTKVTVLG				119000 FU
KB_A10 Fab (Fab, V domains shown) VH: EVQLVESGGGLVRPGGSLRLSCAASGFTFSSYAMSWVRQAPGKGLEWVSAISGSGGSTYYADSVKGRFTISRDNTKNSLYLQMTSLRADDTAFYYCVKDFGPGYGTGWFDYWGPGTLVTVSS VL: AVNWYQQLPGKAPKLLIYAAGGCPRILMRCKQDSDCLAGCVCGPNGFCGSNSGVPDRFSGSKSGNTASLTISGLQSEDEADYYCAAWDDSLSGVVFGGGTQLTVLG	71900	68700	14600	
KB_B01 Fab (Fab, V domains shown) VH: EVQLVESGGGLVRPGGSLRLSCAASGFTFSSYAMSWVRQAPGKGLEWVSAISGSGGSTYYADSVKGRFTISRDNTKNSLYLQMTSLRADDTAFYYCVKDFGPGYGTGWFDYWGPGTLVTVSS VL: AVNWYQQLPGKAPKLLIYAAAGCPRILMRCKQDSDCLAGCVCGPNGFCGTRSGVSDRFSGSKSGTSASLAISGLRSEDEADYYCAAWDDSLRAYVFGTGTKLTVLG	153000	257000	54800	
KB_A09 Fab (Fab, V domains shown) VH: EVQLVESGGGLVRPGGSLRLSCAASGFTFSSYAMSWVRQAPGKGLEWVSAISGSGGSTYYADSVKGRFTISRDNTKNSLYLQMTSLRADDTAFYYCVKDFGPGYGTGWFDYWGPGTLVTVSS VL: AVNWYQQLPGKAPKLLIYAAERCPRILMRCKQDSDCLAGCVCGPNGFCGTPSGVPDRFSGSIDTFSNSASLTISGLKTEDEADYYCQSYDSSHHWVFGGGTKLTVLG	84100	161000	21000	
KB_C10 Fab (Fab, V domains shown) VH: EVQLVESGGGLVRPGGSLRLSCAASGFTFSSYAMSWVRQAPGKGLEWVSAISGSGGSTYYADSVKGRFTISRDNTKNSLYLQMTSLRADDTAFYYCVKDFGPGYGTGWFDYWGPGTLVTVSS VL: AVNWYQQLPGKAPKLLIYAAGPCPRILMRCKQDSDCLAGCVCGPNGFCGADSGVSDRFSGSKSGTSASLAITGLQAEDEGDYYCAAWDDSLNGLVFGGGTKVTVLG	146000	238000	41700	
KB_C09 Fab (Fab, V domains shown) VH: EVQLVESGGGLVRPGGSLRLSCAASGFTFSSYAMSWVRQAPGKGLEWVSAISGSGGSTYYADSVKGRFTISRDNTKNSLYLQMTSLRADDTAFYYCVKDFGPGYGTGWFDYWGPGTLVTVSS VL: AVNWYQQLPGKAPKLLIYAAGRCPRILMRCKQDSDCLAGCVCGPNGFCGGGSGVPDRFSGSIDSSSNSASLTISGLRAEDEADYYCQSYDSSNHWVFGGGTKLTVLG	205000	289000	46800	
KB_B10 (scFv on phage) (scFv, V domains shown) VH: EVQLVESGGGLVRPGGSLRLSCAASGFTFSSYAMSWVRQAPGKGLEWVSAISGSGGSTYYADSVKGRFTISRDNTKNSLYLQMTSLRADDTAFYYCVKDFGPGYGTGWFDYWGPGTLVTVSS VL: QSVLTQLPSVSEAPRQRVTITCGRAMCPRILMRCKQDSDCLAGCVCGPNGFCGTGNWYQQHPGKAPKLIIFDVSKRPSGVPDRFSASKSGNTASLTISGLQAEDEADYYCNSYTSSNTWVFGGGTQLTVLG				9270 FU
KB_B12 (scFv on phage) (scFv, V domains shown) VH: EVQLVESGGGLVRPGGSLRLSCAASGFTFSSYAMSWVRQAPGKGLEWVSAISGSGGSTYYADSVKGRFTISRDNTKNSLYLQMTSLRADDTAFYYCVKDFGPGYGTGWFDYWGPGTLVTVSS VL: TQPPSVSEAPRQRVTITCGERPCPRILMRCKQDSDCLAGCVCGPNGFCGANNWYQQLPGSSPTTVIYEDNQRPSGVPDRFSGSIDSSSNSASLTISGLKTEDEADYYCQSYDSSNQVFGGGTKVTVLG				17400 FU
KB_C09 (scFv on phage) (scFv, V domains shown) VH: EVQLVESGGGLVRPGGSLRLSCAASGFTFSSYAMSWVRQAPGKGLEWVSAISGSGGSTYYADSVKGRFTISRDNTKNSLYLQMTSLRADDTAFYYCVKDFGPGYGTGWFDYWGPGTLVTVSS VL: AVNWYQQLPGKAPKLLIYAAGRCPRILMRCKQDSDCLAGCVCGPNGFCGGGSGVPDRFSGSIDSSSNSASLTISGLRAEDEADYYCQSYDSSNHWVFGGGTKLTVLG				89400 FU
KB_A02 Fab (Fab, V domains shown) VH: EVQLVESGGGLVRPGGSLRLSCAASGFTFSSYAMSWVRQAPGKGLEWVSAISGSGGSTYYADSVKGRFTISRDNTKNSLYLQMTSLRADDTAFYYCVKDFGPGYGTGWFDYWGPGTLVTVSS VL: AVNWYQQLPGKAPKLLIYAAAKCPRILMRCKQDSDCLAGCVCGPNGFCGGASGVSDRFSGSIDSSSNSASLTISGLKPEDEGDYYCQSYDSSNRWVFGGGTKVTVLG	221000	255000	93800	
